Source: patent publication US20210332141A1, “INSULIN-LIKE GROWTH FACTOR-1 RECEPTOR (IGF-1R) BINDING PROTEINS AND METHODS OF USE” (AMGEN INC., priority 2017, published 2021)

Assays:
[1] = target: murine IGF-1R(ECD)-C3-mFc (murine) (UniProt Q60751); assay: IGEN ligand blocking, competitor human Ru labeled IGF-2 on murine IGF-1R(ECD)-C3-mFc
[2] = target: murine IGF-1R(ECD)-C3-mFc (murine) (UniProt Q60751); assay: IGEN ligand blocking, competitor human Ru labeled IGF-1 on murine IGF-1R(ECD)-C3-mFc
[3] = target: murine IGF-1R(ECD)-C3-mFc (murine) (UniProt Q60751); assay: Biacore, kinetic method, murine IGF-1R(ECD)-C3-mFc
[4] = target: murine IGF-1R(ECD)-C3-mFc (murine) (UniProt Q60751); assay: IGEN ligand blocking, maximal inhibition of human Ru labeled IGF-1 binding to murine IGF-1R(ECD)-C3-mFc
[5] = target: HER-2 (Homo sapiens, UniProt P04626); details: cellular; read-out: IC50 against Others: HER-2; cited from earlier work
Sequence of HER-2 (P04626 23-1255, species assumed): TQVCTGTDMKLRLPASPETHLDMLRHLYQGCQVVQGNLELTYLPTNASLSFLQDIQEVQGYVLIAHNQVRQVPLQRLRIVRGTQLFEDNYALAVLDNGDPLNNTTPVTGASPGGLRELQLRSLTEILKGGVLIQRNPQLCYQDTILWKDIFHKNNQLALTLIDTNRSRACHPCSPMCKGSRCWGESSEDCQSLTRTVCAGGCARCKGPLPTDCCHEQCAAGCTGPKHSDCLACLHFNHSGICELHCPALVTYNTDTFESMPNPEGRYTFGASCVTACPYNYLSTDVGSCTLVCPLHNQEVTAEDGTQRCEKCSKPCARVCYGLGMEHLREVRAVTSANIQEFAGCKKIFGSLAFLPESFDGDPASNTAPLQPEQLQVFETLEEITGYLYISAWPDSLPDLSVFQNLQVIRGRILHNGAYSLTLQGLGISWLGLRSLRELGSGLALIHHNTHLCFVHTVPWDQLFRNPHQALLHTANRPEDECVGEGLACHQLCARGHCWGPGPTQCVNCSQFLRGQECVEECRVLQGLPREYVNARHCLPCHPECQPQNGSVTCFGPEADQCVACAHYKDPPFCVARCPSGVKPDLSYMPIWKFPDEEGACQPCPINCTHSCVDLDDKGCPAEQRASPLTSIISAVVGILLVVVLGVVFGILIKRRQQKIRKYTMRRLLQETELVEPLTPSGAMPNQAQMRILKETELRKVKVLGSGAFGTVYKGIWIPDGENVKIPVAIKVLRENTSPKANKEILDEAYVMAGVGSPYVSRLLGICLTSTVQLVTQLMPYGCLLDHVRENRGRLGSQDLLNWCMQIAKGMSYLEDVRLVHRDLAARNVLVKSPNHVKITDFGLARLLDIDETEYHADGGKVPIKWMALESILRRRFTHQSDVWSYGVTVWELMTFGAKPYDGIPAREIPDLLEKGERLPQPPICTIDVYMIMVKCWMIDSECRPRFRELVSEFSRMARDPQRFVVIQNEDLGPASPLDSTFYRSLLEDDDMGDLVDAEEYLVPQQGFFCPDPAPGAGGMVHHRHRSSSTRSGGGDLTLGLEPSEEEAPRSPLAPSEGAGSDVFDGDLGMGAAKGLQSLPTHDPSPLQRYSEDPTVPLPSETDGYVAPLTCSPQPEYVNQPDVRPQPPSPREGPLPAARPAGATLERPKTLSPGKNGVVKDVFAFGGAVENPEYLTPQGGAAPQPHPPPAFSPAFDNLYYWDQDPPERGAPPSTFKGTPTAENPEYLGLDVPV

Sequence of murine IGF-1R(ECD)-C3-mFc (murine) (Q60751 31-936): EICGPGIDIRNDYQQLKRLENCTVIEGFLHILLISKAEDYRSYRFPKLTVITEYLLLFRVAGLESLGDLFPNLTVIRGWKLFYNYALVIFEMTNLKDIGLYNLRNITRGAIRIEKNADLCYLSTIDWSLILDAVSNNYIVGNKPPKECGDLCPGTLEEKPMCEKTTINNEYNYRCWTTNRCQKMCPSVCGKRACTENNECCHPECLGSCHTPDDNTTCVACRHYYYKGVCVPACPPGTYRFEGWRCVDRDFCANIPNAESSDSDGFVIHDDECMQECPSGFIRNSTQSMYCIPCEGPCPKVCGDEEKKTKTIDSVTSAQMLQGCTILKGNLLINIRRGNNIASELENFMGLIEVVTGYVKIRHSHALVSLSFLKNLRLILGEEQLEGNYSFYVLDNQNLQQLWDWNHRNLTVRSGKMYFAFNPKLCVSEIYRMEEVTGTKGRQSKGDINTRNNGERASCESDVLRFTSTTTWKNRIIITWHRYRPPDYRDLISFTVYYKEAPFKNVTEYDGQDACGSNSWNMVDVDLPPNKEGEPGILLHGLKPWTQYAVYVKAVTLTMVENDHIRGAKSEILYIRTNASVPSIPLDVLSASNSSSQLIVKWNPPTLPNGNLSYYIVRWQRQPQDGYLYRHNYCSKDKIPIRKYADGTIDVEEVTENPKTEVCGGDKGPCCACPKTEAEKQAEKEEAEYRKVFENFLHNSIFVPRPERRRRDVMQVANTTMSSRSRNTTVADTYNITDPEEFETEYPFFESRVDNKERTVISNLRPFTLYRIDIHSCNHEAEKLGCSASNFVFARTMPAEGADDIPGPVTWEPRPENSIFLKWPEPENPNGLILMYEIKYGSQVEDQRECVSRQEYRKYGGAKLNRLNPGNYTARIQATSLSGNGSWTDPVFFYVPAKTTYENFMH

Row | Ki [1] [µM] | Ki [2] [µM] | Kd [3] [µM] | IGF-1 Max (%) [4] [%] | Compound | IC50 [5] [µM]
1 | > 1 | > 1 | 0.00033 | 31 | αIR3 (antibody) | –
2 | – | – | – | – | C[C@H](Cc1ccc(O)c(O)c1)[C@@H](C)Cc1ccc(O)c(O)c1 [INSM-18, nondihydroguaiaretic acid] | 15
